Reference: article PMC2873289, “A Helix Replacement Mechanism Directs Metavinculin Functions” (PLoS ONE, 2010)

Key:
[1] = molecular target: T1, metavinculin-ΔH1′ (lacking residues 963–983) (human, UniProt P18206 1-1134, lacking residues 963–983); assay: pull-down; GST-Vt (0.5 µM) on GST-Sepharose beads, with or without pre-incubation with 5 µM PIP2; 15 µM His8-tagged metavinculin or deletion mutant pre-activated with talin-VBS3, 1 hr 37°C; 20 mM Tris-HCl pH 8, 150 mM NaCl; eluted with glutathione, SDS-PAGE, Western blot; conditions: both partners purified
T1 construct: human metavinculin, full length (1-1,134) lacking residues 963-983 (α-helix H1′): 1-962 joined to 984-1,134; also called MV-ΔH1′; source: E. coli BL21-DE3, purified (as full-length metavinculin); not shown: His8, N-terminal, kept
T1 sequence (looked up): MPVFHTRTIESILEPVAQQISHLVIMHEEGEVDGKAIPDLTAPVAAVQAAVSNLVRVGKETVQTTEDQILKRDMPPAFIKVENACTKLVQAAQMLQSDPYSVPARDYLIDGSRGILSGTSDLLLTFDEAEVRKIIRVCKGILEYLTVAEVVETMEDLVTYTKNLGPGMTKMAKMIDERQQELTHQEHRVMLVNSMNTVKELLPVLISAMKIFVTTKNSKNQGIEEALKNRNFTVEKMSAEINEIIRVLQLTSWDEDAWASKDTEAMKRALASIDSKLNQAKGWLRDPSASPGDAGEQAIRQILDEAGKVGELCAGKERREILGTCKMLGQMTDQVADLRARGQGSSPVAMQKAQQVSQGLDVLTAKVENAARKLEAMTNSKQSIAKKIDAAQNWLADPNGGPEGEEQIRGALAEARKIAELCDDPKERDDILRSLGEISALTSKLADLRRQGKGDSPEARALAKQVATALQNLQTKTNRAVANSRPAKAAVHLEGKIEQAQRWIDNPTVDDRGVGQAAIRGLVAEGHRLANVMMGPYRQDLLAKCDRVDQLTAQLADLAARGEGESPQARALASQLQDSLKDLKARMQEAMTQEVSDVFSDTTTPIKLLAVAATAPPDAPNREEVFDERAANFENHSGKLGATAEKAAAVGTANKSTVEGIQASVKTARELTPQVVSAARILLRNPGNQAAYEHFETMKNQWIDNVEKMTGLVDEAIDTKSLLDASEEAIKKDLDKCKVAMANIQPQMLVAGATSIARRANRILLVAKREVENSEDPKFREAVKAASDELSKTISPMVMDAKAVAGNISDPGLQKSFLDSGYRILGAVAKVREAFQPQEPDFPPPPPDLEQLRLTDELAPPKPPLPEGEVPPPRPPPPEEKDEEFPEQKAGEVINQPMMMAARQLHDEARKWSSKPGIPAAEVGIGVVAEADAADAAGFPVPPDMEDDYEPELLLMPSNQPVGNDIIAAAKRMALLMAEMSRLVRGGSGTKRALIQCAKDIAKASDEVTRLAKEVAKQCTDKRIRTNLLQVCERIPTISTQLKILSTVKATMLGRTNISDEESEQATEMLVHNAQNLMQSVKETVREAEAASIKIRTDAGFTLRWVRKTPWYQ

[2] = molecular target: T2, metavinculin-ΔH1ΔH1′ (lacking residues 895–915 and 963–983) (human, UniProt P18206 1-1134, lacking residues 895–915 | lacking residues 963–983); assay: as above; conditions: both partners purified
T2 construct: human metavinculin, full length (1-1,134) lacking residues 895-915 (H1) and 963-983 (H1′); source: E. coli BL21-DE3, purified (as full-length metavinculin); not shown: His8, N-terminal, kept
T2 sequence (looked up): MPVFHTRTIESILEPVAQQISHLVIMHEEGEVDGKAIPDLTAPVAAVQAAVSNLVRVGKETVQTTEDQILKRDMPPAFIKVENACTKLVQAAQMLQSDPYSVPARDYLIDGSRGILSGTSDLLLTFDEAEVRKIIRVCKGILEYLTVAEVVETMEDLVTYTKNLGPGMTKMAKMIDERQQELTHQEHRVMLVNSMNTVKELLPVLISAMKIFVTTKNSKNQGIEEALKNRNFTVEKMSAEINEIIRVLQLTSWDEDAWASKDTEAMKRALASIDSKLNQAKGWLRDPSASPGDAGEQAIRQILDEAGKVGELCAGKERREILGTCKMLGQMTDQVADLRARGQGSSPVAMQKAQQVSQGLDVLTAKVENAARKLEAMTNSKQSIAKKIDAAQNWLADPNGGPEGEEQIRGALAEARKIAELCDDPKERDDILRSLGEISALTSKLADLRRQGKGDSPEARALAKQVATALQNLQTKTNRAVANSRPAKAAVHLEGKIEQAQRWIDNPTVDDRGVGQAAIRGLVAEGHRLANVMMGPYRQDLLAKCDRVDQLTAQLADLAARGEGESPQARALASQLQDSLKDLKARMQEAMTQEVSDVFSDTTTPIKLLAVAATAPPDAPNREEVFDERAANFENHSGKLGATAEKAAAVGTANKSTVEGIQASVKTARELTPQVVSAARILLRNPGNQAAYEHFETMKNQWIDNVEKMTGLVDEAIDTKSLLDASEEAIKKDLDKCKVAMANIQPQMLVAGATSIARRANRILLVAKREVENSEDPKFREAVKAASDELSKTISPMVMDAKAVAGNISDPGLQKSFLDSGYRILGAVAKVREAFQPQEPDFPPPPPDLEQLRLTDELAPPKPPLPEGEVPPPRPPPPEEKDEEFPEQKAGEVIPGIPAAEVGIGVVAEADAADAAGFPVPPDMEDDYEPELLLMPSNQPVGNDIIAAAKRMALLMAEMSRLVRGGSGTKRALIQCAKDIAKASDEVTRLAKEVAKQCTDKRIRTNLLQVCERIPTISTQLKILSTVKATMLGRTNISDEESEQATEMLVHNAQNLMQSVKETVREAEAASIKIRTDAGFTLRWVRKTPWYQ

binding result [1]: binds
binding result [2]: binds
B1: GST tagged vinculin tail domain (GST-Vt; residues 879–1,066) (domain or fragment, human, UniProt P18206-2 879-1066, looked up)
chain: EEKDEEFPEQKAGEVINQPMMMAARQLHDEARKWSSKGNDIIAAAKRMALLMAEMSRLVRGGSGTKRALIQCAKDIAKASDEVTRLAKEVAKQCTDKRIRTNLLQVCERIPTISTQLKILSTVKATMLGRTNISDEESEQATEMLVHNAQNLMQSVKETVREAEAASIKIRTDAGFTLRWVRKTPWYQ
notes: human vinculin tail domain, residues 879-1,066 of vinculin (1,066-residue isoform), cloned in pGEX-4T-1; source: E. coli BL21-DE3, purified (GSTrap FF, Superdex 75)
